In publication PMC10177266, “Interaction between Human Papillomavirus-Encoded E6 Protein and AurB Induces Cell Immortalization and Proliferation—A Potential Target of Intervention” (Cancers, 2023):

Key:
Assay in all cases: pull-down; purified GST fusion proteins on glutathione agarose incubated with in vitro-translated Flag-AurB for 1 h at room temperature; washed thrice with PBS with 0.1% Tween 20; bound AurB detected by western blot, quantitated with ImageJ and normalized to the GST fusion protein
[1] = molecular target: GST-HPV16 E6 with its C-terminus PDZ binding motif depleted (E6ΔPBM) (human papillomavirus type 16) (UniProt P03126)
GST-HPV16 E6 T140A = molecular target: T1, GST-HPV16 E6 T140A (human papillomavirus type 16, UniProt P03126 1-158, T140A); details: one partner purified
T1 construct: E6 oncoprotein of human papillomavirus type 16 with T140A; source: E. coli, purified on glutathione-conjugated agarose resin

GST-HPV16 E6 S145A = molecular target: T2, GST-HPV16 E6 S145A (human papillomavirus type 16, UniProt P03126 1-158, S145A); details: one partner purified
T2 construct: E6 oncoprotein of human papillomavirus type 16 with S145A; source: E. coli, purified on glutathione-conjugated agarose resin

GST-HPV16 E6 S89A = molecular target: T3, GST-HPV16 E6 S89A (human papillomavirus type 16, UniProt P03126 1-158, S89A); details: one partner purified
T3 construct: E6 oncoprotein of human papillomavirus type 16 with S89A; source: E. coli, purified on glutathione-conjugated agarose resin

GST-HPV16 E6 S150A = molecular target: T4, GST-HPV16 E6 S150A (human papillomavirus type 16, UniProt P03126 1-158, S150A); details: one partner purified
T4 construct: E6 oncoprotein of human papillomavirus type 16 with S150A; source: E. coli, purified on glutathione-conjugated agarose resin

Molecule | fold of bound AurB against E6 wild type [1] [fold] | bound AurB, percent of E6 wild type (GST-HPV16 E6 T140A) [%] | bound AurB, percent of E6 wild type (GST-HPV16 E6 S145A) [%] | bound AurB, percent of E6 wild type (GST-HPV16 E6 S89A) [%] | bound AurB, percent of E6 wild type (GST-HPV16 E6 S150A) [%]
Flag-tagged Aurora kinase B (from UniProt Q96GD4 1-344) (enzyme) | 3 |  |  |  | 
Flag-tagged Aurora kinase B (enzyme, Aurora kinase B, human, from pcDNA:Flag-Aurora kinase B; the functional rows use this molecule for that purified protein; also called FL-AurB; Flag-AurB; source: in vitro translated (TNT Coupled Reticulocyte Lysate System, Promega)) MAQKENSYPWPYGRQTAPSGLSTLPQRVLRKEPVTPSALVLMSRSNVQPTAAPGQKVMENSSGTPDILTRHFTIDDFEIGRPLGKGKFGNVYLAREKKSHFIVALKVLFKSQIEKEGVEHQLRREIEIQAHLHHPNILRLYNYFYDRRRIYLILEYAPRGELYKELQKSCTFDEQRTATIMEELADALMYCHGKKVIHRDIKPENLLLGLKGELKIADFGWSVHAPSLRRKTMCGTLDYLPPEMIEGRMHNEKVDLWCIGVLCYELLVGNPPFESASHNETYRRIVKVDLKFPASVPMGAQDLISKLLRHNPSERLPLAQVSAHPWVRANSRRVLPPSALQSVA |  | 45 | 27 | 44 | 57
